Article PMC12799421, “Inhibition of constitutive activity of the atypical chemokine receptor 3 by the small-molecule inverse agonist VUF16840” (Molecular Pharmacology, 2025)
Blank lines part the entries; values can stand above or below the compound they belong to.

Tests used:
CXCL12 levels [1] = settings: humans; cited from earlier work
CXCL12 levels [2] = system: CXCL12 levels; design: method as in PMID 33595155, PMID 38819698; settings: mice, in vivo application; cited from earlier work
[3] = target: hCCR3 C-terminally tagged with SmBiT (chemokine receptor screen) (human) (UniProt P51677)
CCR3 = CCR3 (Homo sapiens, UniProt P51677); test: NanoBiT β-arrestin2 recruitment to CCR3, concentration-response; type: cell-based; settings: HEK293T, NanoBiT
Description: The pharmacological modulation of all chemokine receptors by VUF16840 was performed according to an established method.[8]^,[23]^,[39] Briefly, β-arrestin2 recruitment to chemokine receptors in response to 1 μM VUF16840 or positive control chemokines was monitored by NanoLuc complementation assay (NanoBiT, Promega). Four hours after transfection, cells were harvested, incubated for 25 minutes at 37 °C with furimazine and distributed into a white 96-well plates (1 × 10^5 cells per well). β-Arrestin2 recruitment was then detected for 20 minutes upon treatment with 1 μM VUF16840 (or increasing concentrations ligand for experiments with CC chemokine receptor [CCR3]) using the Mithras LB940 luminometer (Berthold Technologies). To evaluate the antagonist properties of VUF16840, full agonists of each receptor were added after the 20-minute incubation with VUF16840. Signal from wells treated with full agonist only was defined as 100% activity and signals from wells treated with no agonist were used to set 0% activity.
Supplemental Figure 5 – Modulation of CCR3 receptor by VUF16840. Recruitment of β-arrestin2 towards CCR3 chemokine receptor was measured using a NLuc complementation assay in HEK293T cells. The concentration-dependent activation of the CCR3 was determined for VUF16840 and the endogenous agonist CCL13. All values depict the mean ± SD of ≥ 3 experiments.

ACKR3 [4] = target: T1, ACKR3 (Homo sapiens, UniProt P25106); test: BRET β-arrestin1 recruitment to ACKR3 in HEK293T cells; type: cell-based; settings: * VUF16840 as inverse agonist
T1 construct: expressed in transfected cells; host or cells: HEK293T
Description: (§1) For bioluminescence resonance energy transfer (BRET) experiments, several BRET acceptor constructs were used that consist of the pcDEF3 vector with either GRK2 (NCBI: NM_174710.2), β-arrestin1 (NCBI: NM_174243.3), or β-arrestin2 (NCBI: XM_005220181.4) fused at the C-terminus with a SpeI/NotI linker to mVenus (NCBI: KP666136.1), as previously described.[34]
(§2) For 1·10^6 HEK293T cells, a transfection mix consisting of 2 μg plasmid DNA, 12 μg linear PEI in a total volume of 200 μL 150 mM NaCl was made and thoroughly vortexed. The transfection mix was incubated for 15 minutes and consequently added to a cell suspension with a final concentration of 3·10^5 cells/mL. For functional studies this cell suspension was immediately transferred to a poly-L-lysine-coated white 96-well plate, with 3·10^4 cells per well. […] For BRET-based membrane localization experiments, the 2 μg plasmid DNA consisted of ACKR3-NL (0.05 μg), mVenus-CAAX (0.25 μg), and pcDEF3 vector DNA without insert (1.7 μg).
(§3) Mean pIC50 values were determined by averaging fitted values from individual experiments. Graphs depict the pooled data of all experiments. Similarly, sigmoidal, ligand-induced concentration-dependent activation or inhibition of the proximity between ACKR3 and the protein of interest was analyzed using GraphPad Prism 8, by fitting a 3-parameter concentration-response model to the data, to determine pEC50/pIC50 values. Mean pEC50 values and pIC50 values were determined by averaging fitted values from individual experiments. Graphs depict the pooled data of all experiments, for which values are normalized, per experiment, to the fold difference compared with basal signal.
HEK293T cells were stimulated with increasing concentrations of VUF15485 or VUF16840 only (A–D), or increasing concentrations of VUF16840 in the presence of 100 nM VUF15485 (E–H). The resulting proximity between ACKR3 and β-arrestin1 (A, E), GRK2 (B, F), or Rab5a (C, G) was determined by bioluminescence resonance energy transfer. Furthermore, an interaction between clathrin A and β-arrestin2 was measured by NLuc complementation, as was determined by quantifying the relative light units (D, H). Depicted data is normalized as fold-basal and represents the mean ± SD of N experiments with triplicate measurements per experiment. N is specified in Supplemental Table 1.

ACKR3 [5] = target: T1, ACKR3; test: BRET β-arrestin2 recruitment to hACKR3 in HEK293T cells; type: cell-based; settings: * VUF16840 as inverse agonist; mean ± SD (N)
Description: as §1, §2, §3

[6] = target: N-terminally NLuc-tagged hACKR3 (human) (UniProt P25106)
[7] = target: hACKR3-SmBiT (HA-tagged ACKR3 C-terminally fused to SmBiT) (human) (UniProt P25106)
Chain of hACKR3-SmBiT (HA-tagged ACKR3 C-terminally fused to SmBiT) (human) (P25106 whole entry, the tested form may be a part): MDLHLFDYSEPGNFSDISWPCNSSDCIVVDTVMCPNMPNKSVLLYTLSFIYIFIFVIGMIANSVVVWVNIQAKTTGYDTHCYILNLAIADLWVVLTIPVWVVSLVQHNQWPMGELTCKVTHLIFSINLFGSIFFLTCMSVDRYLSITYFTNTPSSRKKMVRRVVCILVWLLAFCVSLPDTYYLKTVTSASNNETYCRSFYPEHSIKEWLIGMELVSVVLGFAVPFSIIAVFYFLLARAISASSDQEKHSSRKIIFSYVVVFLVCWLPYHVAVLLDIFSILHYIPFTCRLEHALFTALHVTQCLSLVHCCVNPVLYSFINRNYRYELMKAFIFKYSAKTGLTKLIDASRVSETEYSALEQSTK

Chain of Human recombinant CXCL12 (P48061 22-93): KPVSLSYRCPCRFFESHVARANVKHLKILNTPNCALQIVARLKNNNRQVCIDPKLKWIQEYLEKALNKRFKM
T1 sequence (P25106 whole entry): as the sequence (P25106 whole entry, the tested form may be a part) above
Chain of CCR3 (P51677 whole entry): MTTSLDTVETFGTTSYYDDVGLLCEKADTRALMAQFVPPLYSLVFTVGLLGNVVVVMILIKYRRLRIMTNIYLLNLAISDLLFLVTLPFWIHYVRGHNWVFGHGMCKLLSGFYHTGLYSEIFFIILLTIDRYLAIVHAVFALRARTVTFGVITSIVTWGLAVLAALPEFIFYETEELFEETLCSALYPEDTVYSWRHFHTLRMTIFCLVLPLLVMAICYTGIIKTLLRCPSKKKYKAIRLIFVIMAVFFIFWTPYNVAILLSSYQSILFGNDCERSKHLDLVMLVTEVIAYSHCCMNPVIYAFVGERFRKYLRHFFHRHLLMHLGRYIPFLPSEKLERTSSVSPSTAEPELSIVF
Chain of CCR3 (P32121 whole entry partner): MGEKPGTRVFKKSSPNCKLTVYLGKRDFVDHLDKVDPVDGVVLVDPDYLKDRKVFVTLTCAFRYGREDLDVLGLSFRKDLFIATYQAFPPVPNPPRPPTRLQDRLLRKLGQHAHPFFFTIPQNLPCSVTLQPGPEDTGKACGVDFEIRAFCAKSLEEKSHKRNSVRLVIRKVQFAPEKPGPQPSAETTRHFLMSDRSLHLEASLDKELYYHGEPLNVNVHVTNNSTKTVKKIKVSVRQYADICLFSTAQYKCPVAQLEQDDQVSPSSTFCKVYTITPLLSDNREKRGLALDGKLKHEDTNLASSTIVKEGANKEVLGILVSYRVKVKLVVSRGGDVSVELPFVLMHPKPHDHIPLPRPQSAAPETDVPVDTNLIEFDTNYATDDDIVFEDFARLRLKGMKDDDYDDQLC
Chain of CCL13 (Q99616 17-98): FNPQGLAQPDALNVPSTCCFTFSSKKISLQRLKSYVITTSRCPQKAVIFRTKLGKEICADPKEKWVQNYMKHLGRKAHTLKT
Chain of N-terminally NLuc-tagged hACKR3 (human) (P25106 whole entry, the tested form may be a part): as the sequence (P25106 whole entry, the tested form may be a part) above
Chain of hCCR3 C-terminally tagged with SmBiT (chemokine receptor screen) (human) (P51677 whole entry): as the sequence (P51677 whole entry) above

- β-arrestin2 recruitment to CCR3 (NanoBiT, HEK293T), EC50 of CCL13 [3]: 63 nM
Compound: CCL13 (from UniProt Q99616 17-98) (ligand)

- β-arrestin1 BRET pEC50 (ACKR3 [4]): 8.1 ± 0.1 (6)
- β-arrestin2 BRET pEC50 (ACKR3 [5]): 8.2 ± 0.1 (3)
Compound: CXCL11: human recombinant chemokine, endogenous agonist of ACKR3

- bystander BRET between ACKR3-NLuc (C-terminal NLuc, not the construct of m2) and plasma membrane mVenus-CAAX in HEK293T cells (receptor internalization), pIC50 of CXCL12 [6]: 9.1 pIC50
- β-arrestin2 recruitment to hACKR3 (NanoBiT, HEK293T, concentration-response after 30 minutes), EC50 of CXCL12 [7]: 1.6 nM
Compound: Human recombinant CXCL12 (from UniProt P48061 22-93) (ligand)

More lines, now with the values behind:

Compound: O=C(N[C@H]1CCN(CC2CC2)C[C@@H]1C(=O)NC1(c2ncccn2)CC1)c1cc(-c2ccc(F)cc2F)on1 [ACT1004-1239]
- plasma CXCL12 levels (CXCL12 levels [1]): increase
- plasma and brain CXCL12 levels (CXCL12 levels [2]): increase

Compound: CCL13: endogenous ligand (agonist) of CCR3
- pEC50, activation of CCR3 (β-arrestin2 recruitment) (CCR3): 7.2 ± 0.1
- EC50 (CCR3; read-out: EC50, activation of CCR3 (β-arrestin2 recruitment)): 63 nM
